Target: MyoVa^GTD (mouse) (UniProt Q99104)
Assay: ITC

fold higher affinity than MICAL1^GTBM: 25 fold
Substance: Spir2^GTBM (domain or fragment)

Reference: article PMC7673715
